{"source": "patent US5817785", "about": "“Methods of producing nucleic acid ligands” (NeXstar Pharmaceuticals, Inc.)", "key": {"[1]": {"biological_target": "T1, HIV-1 reverse transcriptase (HIV-RT) (HIV-1, UniProt P04585;P04585 P04585:588-1147,P04585:588-1027)", "test": "filter", "description": "(§1) Affinity assays with labeled RNA and HIV-RT. Model RNAs for refinement of the 5' and 3' boundaries and for determination of the effect of substitutions were labeled during transcription with T7 RNA polymerase as described in Tuerk et al. (1990) except that a-^32P-ATP was used, in reactions of 0.5 mM C,G, and UTP with 0.05 mM ATP. Synthetic oligonucleotides and phosphatased transcripts (as in Tuerk et al., 1990) were kinased as described in Gauss et al. (1987). All RNA-protein binding reactions were done in a \"binding buffer\" of 200 mM KOAc, 50 mM Tris-HCl pH 7.7, 10 mM dithiothreitol with exceptions noted for chemical protection experiments below. RNA and protein dilutions were mixed and stored on ice for 30 minutes then transferred to 37° C. for 5 minutes. In binding assays the reaction volume was 60 μl of which 50 μl was assayed. Each reaction was suctioned through a pre-wet (with binding buffer) nitrocellulose filter and rinsed with 3 mls of binding buffer after which it was dried and counted for assays or subjected to elution and assayed for chemical modification. In comparisons of binding affinity, results were plotted and the protein concentration at which half-maximal binding occurred (the approximate Kd in conditions of protein excess) was determined graphically."}, "[2]": {"biological_target": "T1, HIV-1 reverse transcriptase (HIV-RT)", "test": "filter; specific binding abolished", "description": "as §1"}, "[3]": {"biological_target": "T1, HIV-1 reverse transcriptase (HIV-RT)", "test": "filter; no effect on binding", "description": "as §1"}, "[4]": {"biological_target": "T1, HIV-1 reverse transcriptase (HIV-RT)", "test": "filter; affinity unchanged versus transcripts with two extra 5' Gs", "description": "as §1"}, "[5]": {"biological_target": "T1, HIV-1 reverse transcriptase (HIV-RT)", "test": "filter; binds with high affinity", "description": "as §1"}, "[6]": {"biological_target": "T1, HIV-1 reverse transcriptase (HIV-RT)", "test": "filter; section II states 5-fold decrease on removal of both Us", "description": "as §1"}, "[7]": {"biological_target": "T1, HIV-1 reverse transcriptase (HIV-RT)", "test": "filter; binding reduced to that of non-specific sequences", "description": "as §1"}, "[8]": {"biological_target": "T1, HIV-1 reverse transcriptase (HIV-RT)", "test": "filter; no difference in affinity", "description": "as §1"}, "[9]": {"biological_target": "T1, HIV-1 reverse transcriptase (HIV-RT)", "test": "filter; no 3' helix", "description": "as §1"}, "[10]": {"biological_target": "T1, HIV-1 reverse transcriptase (HIV-RT)", "test": "filter; little difference in affinity", "description": "as §1"}}}
{"binder": "GGCCCGAAGUGCAACGGGAAAAUGCACU (ssRNA)", "note": "[ligand B U1C]", "values": [{"measurement": "binding signal", "setting": "[1]", "result": "~20", "unit": "fold lower affinity"}]}
{"binder": "GGUCCGAAGUGCAACGGAAAAAUGCACU (ssRNA)", "note": "[ligand B G16A]", "values": [{"measurement": "binding result", "setting": "[2]", "result": "no binding"}]}
{"binder": "GGUGCGAAGUGCAACGCGAAAAUGCACU (ssRNA)", "note": "[ligand B C2-G15 to G-C]", "values": [{"measurement": "binding result", "setting": "[1]", "result": "no binding"}]}
{"binder": "GGUCGGAAGUGCAACCGGAAAAUGCACU (ssRNA)", "note": "[ligand B C3-G14 to G-C]", "values": [{"measurement": "binding signal", "setting": "[1]", "result": "~10", "unit": "fold lower affinity"}]}
{"binder": "GGUCCCAAGUGCAAGGGGAAAAUGCACU (ssRNA)", "note": "[ligand B G4-C13 to C-G]", "values": [{"measurement": "binding signal", "setting": "[3]", "result": 1, "unit": "fold vs ligand B"}]}
{"binder": "GGUCCAAAGUGCAAUGGGAAAAUGCACU (ssRNA)", "note": "[ligand B G4-C13 to A-U]", "values": [{"measurement": "binding signal", "setting": "[1]", "result": "~20", "unit": "fold lower affinity"}]}
{"binder": "GGUCCAAAGUGCAACGGGAAAAUGCACU (ssRNA)", "note": "[ligand B G4-C13 to A-C]", "values": [{"measurement": "binding signal", "setting": "[2]", "result": "≥ 100", "unit": "fold lower affinity"}]}
{"binder": "UCCGAAGUGCAACGGGAAAAUGCACU (ssRNA)", "note": "[synthetic ligand B with 5'-terminal U1]", "values": [{"measurement": "binding result", "setting": "[4]", "result": "binds"}]}
{"binder": "UCCGAAGUGCAACGGGAAAAUGCACU (ssRNA, 2'-OMe at the 12 riboses of Stem 2 (A6-A11, U21-U26))", "note": "[ligand B with 2'-methoxy Stem 2 (FIG. 7 C)]", "values": [{"measurement": "binding result", "setting": "[5]", "result": "binds"}]}
{"binder": "GGCCGAAGUGCAACGGGAAAAUGCACU (ssRNA, [none])", "note": "[HIV-RT ligand C of FIG. 2 (no 5' U)]", "values": [{"measurement": "binding signal", "setting": "[6]", "result": "~20", "unit": "fold lower affinity"}]}
{"binder": "GGCGAAGUGCAACGGGAAAAUGCACU (ssRNA)", "note": "[HIV-RT ligand D of FIG. 2 (5' U and next C removed)]", "values": [{"measurement": "binding result", "setting": "[7]", "result": "no binding"}]}
{"binder": "GGUCCGAAGUGCAACGGGAAAAUGC (ssRNA)", "note": "[ligand B 3' truncation A24-U26]", "values": [{"measurement": "binding signal", "setting": "[8]", "result": 1, "unit": "fold vs ligand B"}]}
{"binder": "GGUCCGAAGUGCAACGGGAAAAUG (ssRNA)", "note": "[ligand B 3' truncation C23-U26]", "values": [{"measurement": "binding signal", "setting": "[1]", "result": 7, "unit": "fold lower affinity"}]}
{"binder": "GGUCCGAAGUGCAACGGGAAAAU (ssRNA)", "note": "[ligand B 3' truncation G22-U26]", "values": [{"measurement": "binding signal", "setting": "[1]", "result": "~12", "unit": "fold lower affinity"}]}
{"binder": "GGUCCGAAGUGCAACGGGAAAA (ssRNA)", "note": "[ligand B 3' truncation U21-U26 (no Stem 2)]", "values": [{"measurement": "binding signal", "setting": "[9]", "result": "~70", "unit": "fold lower affinity"}]}
{"binder": "GGACCGAAGUGCAACGGGAAAAUGCACU (ssRNA)", "note": "[ligand B U1A]", "values": [{"measurement": "binding result", "setting": "[10]", "result": "binds"}]}
